According to patent publication US20210238569A1:

How the values were obtained:
[1] = target: protease-activated RNA polymerase (PA-RNAP) including the HCV protease substrate (UniProt P00806)
[2] = tested on: TEV protease wild-type substrate sequence ENLYFQSA
[3] = target: protease-activated RNA polymerase (PA-RNAP) including the TEV protease substrate (UniProt P00806)
[4] = tested on: target substrate sequence ENLYFESA

Sequence of protease-activated RNA polymerase (PA-RNAP) including the HCV protease substrate (P00806 whole entry, looked up): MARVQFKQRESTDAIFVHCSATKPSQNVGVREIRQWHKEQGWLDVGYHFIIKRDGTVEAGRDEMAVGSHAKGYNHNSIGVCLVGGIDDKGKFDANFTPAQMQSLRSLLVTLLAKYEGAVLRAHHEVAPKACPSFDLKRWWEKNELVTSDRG
Sequence of protease-activated RNA polymerase (PA-RNAP) including the TEV protease substrate (P00806 whole entry, looked up): as above

hepatitis C virus (HCV) protease, constitutively active construct that includes the NS4a cofactor peptide
Western blot of PA-RNAP sensor activation (proteolysis) [1]: the PA-RNAP sensor is proteolyzed to a smaller band of anticipated molecular weight only in the presence of a cognate protease that can cleave the peptide sequence in each PA-RNAP linker

tobacco etch virus (TEV) protease, expressed as MBP-TEV fusion protein
cleavage of substrate sequence [2]: Wild-type TEV protease cleaves the substrate sequence ENLYFQSA (SEQ ID NO: 24)
Western blot of PA-RNAP sensor activation (proteolysis) [3]: the PA-RNAP sensor is proteolyzed to a smaller band of anticipated molecular weight only in the presence of a cognate protease that can cleave the peptide sequence in each PA-RNAP linker
cleavage of substrate sequence [4]: does not cleave the target substrate sequence ENLYFESA (SEQ ID NO: 25)
